Experimental data as given in patent publication US12551583B2, “Radiolabeled ligands for targeted PET/SPECT imaging and methods of their use” (MEMORIAL SLOAN KETTERING CANCER CENTER, priority 2016, dated 2026).

Tests used:
in vivo = conditions: female, BALB/c, mouse, iv, total radioactivity; for tissue uptake at 24 h: 4T1 tumoral uptake; for tissue uptake at 4 h: biodistribution, Tumor (4T1 tumoral uptake)
Description: (§1) 4T1 orthotopic BALB/c mouse model. The cells were removed from the flasks, concentrated, and resuspended in minimal media for cell counting. The cells were then diluted to contain approximately 1 million cells in 30 μL of media (for orthotopic allografts). Following an MSKCC Institutional Animal Care and Use Committee approved protocol, 8-10 week old BALB/c mice (Charles River Laboratories, Wilmington, MA) were surgically implanted with one million 4T1 cancer cells into the first or the last mammary fat pad of the right side of the animal using aseptic surgical techniques and sterile staple closures while the mice were under anesthetic. Additionally, mice were given injections of meloxicam (24 h pain killer) in the scruff and bupivacaine intradermally prior to surgical incisions. One day post surgery, the mice were again given meloxicam and checked to ensure that the closure was healing. Two and three days post surgery, the mice were checked to ensure that the animals were healthy and recovering well from the surgery. Five to seven days post surgery, the staples were removed. Five to nine days post surgery, the mice were injected with 50-75 μCi (0.9-0.4 nmol) of the respective radiopharmaceutical for in vivo biodistribution or 500-600 μCi (9-11 nmol) for in vivo imaging. The mice receiving ^64Cu-NOTA-pHLIP were sacrificed at 1, 2, 4, 12, 24, 36, and 48 h; the mice receiving [^18F]—AlF-NOTA-pHLIP were sacrificed at 0.5, 1, 2, 4, 6 and 8 h. The 4T1 tumors in this study were purposely used 5-9 days after inoculation to ensure lower tumoral pH. Animal models. Animal studies were conducted according to MSKCC IACUC-approved animal protocol. 4T1 (orthotopic breast cancer allografts of 1×10^6 cells surgically implanted in the mammary fat pad) and B16-F10 (orthotopic melanoma allografts of 1×10^5 cells injected intradermally on the shoulder) tumors were orthotopically inoculated in media in female BALB/c and C57Bl/6 mice (Charles River Laboratories (CRL)), respectively. Additionally, PC3 (3×10^6 cells) or LNCaP (3-6×10^6 cells) tumors were subcutaneously xenografted on the shoulder of athymic nude male mice (CRL). Mice were used once tumor volumes were approximately 90-300 mm^3. In vivo animal PET imaging and biodistribution. Mice were injected with radiolabeled NOTA-pHLIP derivatives i.v. (500-700 μCi/mouse for PET or SPECT imaging studies and 25-100 μCi/mouse for biodistribution studies). All injections were less than 200 μL with <10% EtOH in sterile PBS. PET images were obtained with the mice under anesthesia in an Inveon PET-CT or microPET Focus 120 (Siemens) at 0.5-48 h p.i. All images were analyzed using ASIPro VM (Concorde Microsystems). SPECT images were obtained with the mice under anesthesia in a NanoSPECT/CT Plus at 4-24 h p.i. All SPECT images were reconstructed using HiSPECT and analyzed using InVivoScope. Dissections for ex vivo biodistribution were performed on mice after CO2 asphyxiation or cervical dislocation while anesthetized at reported time points. Weight of the syringe prior to injection and after injection was used to determine the mass of injectate. Activity of the syringe prior to injection and after injection was used to determine the percent of injectate administered. The mass injected was corrected by the percent of radioactivity injected. Four to five aliquots (10 μL) were weighed and counted as internal standards for each study. All of the collected organs were counted using an automatic gamma counter (Wizard 3″, PerkinElmer, Waltham, MA). The total injected dose was found as the mass injected dose×fraction radioactivity injected×internal standard average counts/g. The percent injected dose (% ID) was determined as the counts for the tissue×100/total injected dose. The % ID/g was calculated as the % ID/tissue weight. The average and standard deviation of the % ID and % ID/g was determined using normal methods (n−1) for each set of mice.

[1] = tested on: 4T1 orthotopic tumor-bearing BALB/c mice; experiment: in vivo; conditions: female, BALB/c, mouse, iv; for biodistribution, Tumor (4T1 tumoral uptake): 4 h
Description: as §1

SMILES: CC(C)C[C@@H](NC(=O)[C@@H](CC(C)C)NC(=O)[C@@H](CC(=O)O)NC(=O)[C@@H](CC(C)C)NC(=O)[C@@H](CC(C)C)NC(=O)[C@@H](CC(C)C)NC(=O)[C@H](NC(=O)[C@@H](CC(=O)O)NC(=O)[C@H](NC(=O)[C@H]1CCCN1C(=O)[C@@H](Cc1ccccc1)NC(=O)[C@@H](CC(C)C)NC(=O)[C@@H](CC(C)C)NC(=O)[C@@H](CC(=O)O)NC(=O)[C@@H](CC(C)C)NC(=O)[C@@H](Cc1ccc(O)cc1)NC(=O)[C@@H](C)NC(=O)[C@@H](CCCNC(=N)N)NC(=O)[C@@H](Cc1c[nH]c2ccccc12)NC(=O)[C@H]1CCCN1C(=O)[C@@H](CC(N)=O)NC(=O)[C@@H](CCC(N)=O)NC(=O)[C@@H](CC(=O)O)NC(=O)[C@@H](CC(=O)O)NC(=O)[C@@H](CS)NC(=O)[C@@H](C)NC(=S)Nc1ccc(CC2CN(CC(=O)O)CCN(CC(=O)O)CCN2CC(=O)O)cc1)[C@H](C)O)[C@H](C)O)C(=O)N[C@H](Cc1c[nH]c2ccccc12)C(=O)O (single isomer, unassigned) [^67Ga-NOTA-Var3, metal not drawn]
- tissue uptake at 24 h (in vivo; 50 uCi): 2.93 ± 0.11 %ID/g
- tissue uptake at 4 h (in vivo): 2.05 ± 0.17 %ID/g

SMILES: CC(C)C[C@@H](NC(=O)[C@@H](CC(C)C)NC(=O)[C@@H](CC(=O)O)NC(=O)[C@@H](CC(C)C)NC(=O)[C@@H](CC(C)C)NC(=O)[C@@H](CC(C)C)NC(=O)[C@H](NC(=O)[C@@H](CC(=O)O)NC(=O)[C@H](NC(=O)[C@H]1CCCN1C(=O)[C@@H](Cc1ccccc1)NC(=O)[C@@H](CC(C)C)NC(=O)[C@@H](CC(C)C)NC(=O)[C@@H](CC(=O)O)NC(=O)[C@@H](CC(C)C)NC(=O)[C@@H](Cc1ccc(O)cc1)NC(=O)[C@@H](C)NC(=O)[C@@H](CCCNC(=N)N)NC(=O)[C@@H](Cc1c[nH]c2ccccc12)NC(=O)[C@H]1CCCN1C(=O)[C@@H](CC(N)=O)NC(=O)[C@@H](CCC(N)=O)NC(=O)[C@@H](CC(=O)O)NC(=O)[C@@H](CC(=O)O)NC(=O)[C@@H](CSC1CC(=O)N(CCNC(=O)CN2CCN(CC(=O)O)CCN(CC(=O)O)CC2)C1=O)NC(=O)[C@@H](C)N)[C@H](C)O)[C@H](C)O)C(=O)N[C@H](Cc1c[nH]c2ccccc12)C(=O)O (single isomer, unassigned) [^68Ga-NO2A-cysVar3, metal not drawn]
- biodistribution, Tumor (4T1 tumoral uptake) [1]: 6±2 % ID/g

SMILES: CC(C)C[C@@H](NC(=O)[C@@H](CC(C)C)NC(=O)[C@@H](CC(=O)O)NC(=O)[C@@H](CC(C)C)NC(=O)[C@@H](CC(C)C)NC(=O)[C@@H](CC(C)C)NC(=O)[C@H](NC(=O)[C@@H](CC(=O)O)NC(=O)[C@H](NC(=O)[C@H]1CCCN1C(=O)[C@@H](Cc1ccccc1)NC(=O)[C@@H](CC(C)C)NC(=O)[C@@H](CC(C)C)NC(=O)[C@@H](CC(=O)O)NC(=O)[C@@H](CC(C)C)NC(=O)[C@@H](Cc1ccc(O)cc1)NC(=O)[C@@H](C)NC(=O)[C@@H](CCCNC(=N)N)NC(=O)[C@@H](Cc1c[nH]c2ccccc12)NC(=O)[C@H]1CCCN1C(=O)[C@@H](CC(N)=O)NC(=O)[C@@H](CCC(N)=O)NC(=O)[C@@H](CC(=O)O)NC(=O)[C@@H](CC(=O)O)NC(=O)[C@@H](CSC1CC(=O)N(CCNC(=O)CN2CCN(CC(=O)O)CCN(CC(=O)O)CC2)C1=O)NC(=O)[C@@H](C)N)[C@H](C)O)[C@H](C)O)C(=O)N[C@H](Cc1c[nH]c2ccccc12)C(=O)O (single isomer, unassigned) [^67Ga-NO2A-cysVar3, metal not drawn]
- tissue uptake at 24 h (in vivo; 500 uCi): 34 ± 3 %ID/g
- 4T1 tumoral uptake ([1]; 50 uCi, 24 h): 26±4 % ID/g
- biodistribution, Tumor (4T1 tumoral uptake) [1]: 12±3 % ID/g

SMILES: CC(C)C[C@@H](NC(=O)[C@@H](Cc1ccc(O)cc1)NC(=O)[C@@H](C)NC(=O)[C@@H](CCCNC(=N)N)NC(=O)[C@@H](Cc1c[nH]c2ccccc12)NC(=O)[C@H]1CCCN1C(=O)[C@@H](CC(N)=O)NC(=O)[C@@H](CCC(N)=O)NC(=O)[C@@H](CC(=O)O)NC(=O)[C@@H](CC(=O)O)NC(=O)[C@@H](C)N)C(=O)N[C@H](CC(=O)O)C(=O)N[C@H](CC(C)C)C(=O)N[C@H](CC(C)C)C(=O)N[C@H](Cc1ccccc1)C(=O)N1CCC[C@@H]1C(=O)N[C@@H](C(=O)N[C@H](CC(=O)O)C(=O)N[C@@H](C(=O)N[C@H](CC(C)C)C(=O)N[C@H](CC(C)C)C(=O)N[C@H](CC(C)C)C(=O)N[C@H](CC(=O)O)C(=O)N[C@H](CC(C)C)C(=O)N[C@H](CC(C)C)C(=O)N[C@H](Cc1c[nH]c2ccccc12)C(=O)N[C@H](CSC1CC(=O)N(CCNC(=O)CN2CCN(CC(=O)O)CCN(CC(=O)O)CC2)C1=O)C(=O)NCC(=O)O)[C@H](C)O)[C@H](C)O (some centres unmarked) [^67Ga-NO2A-C^27Var3, metal not drawn]
- tissue uptake at 24 h (in vivo; 50 uCi): 23 ± 5 %ID/g
- tissue uptake at 4 h (in vivo): 20.5 ± 1 %ID/g
